B1: Oligonucleotide 1 (5'-5' and 3'-3' inverted dT capped anti-VEGF aptamer) (ssRNA)
RNA: CGGAAUCAGUGAAUGCUUAUACAUCCG
modifications: 2'-F on all C and U; 2'-OMe on all G and on A except A4 and A5 (ribo); 5'-5' inverted dT cap; 3'-3' inverted dT cap

Assays:
[1] = biological target: T1, VEGF165 (vascular endothelial growth factor A, 165 isoform) (Homo sapiens, UniProt P15692-4 P15692-4:27-191); assay: competition; competitive ELISA-like plate assay against biotinylated DNA competitor on immobilized VEGF165, chemiluminescence readout; settings: tags: recombinant human VEGF165, immobilized on 96-well plate; chain copies: 2 inferred
Protocol: (§1) The ability of anti-VEGF aptamers to bind to human vascular endothelial growth factor (VEGF) was determined using a competitive binding ELISA-like assay. In this assay, recombinant VEGF₁₆₅ is bound to the wells of a 96-well plate (Quadra 96 Plus). Following blocking of nonspecific reactive sites on the plate, a matrix of the test aptamer and a biotinylated competitor, the DNA oligonucleotide shown below, were added.
(§2) “X” represent a biotin moiety in the above representation. Both the biotinylated competitor and the test aptamer compete for binding sites on the immobilized VEGF. Following the removal of the unbound biotinylated competitor and unbound test aptamer, the amount of biotinylated competitor remaining is detected using a chemiluminescence reaction. The entire plate was immediately read on a luminometer (Victor 2). The amount of bound biotinylated competitor is inversely related to the amount of bound test aptamer.

[2] = biological target: T1, VEGF165 (vascular endothelial growth …); assay: competition; biotinylated competitor binds immobilized VEGF165 and is displaced by test aptamer; printed as SEQ ID NO:1 in text but matches listing SEQ 11; settings: tags: recombinant human VEGF165, immobilized on 96-well plate; chain copies: 2 inferred; label: two 5' biotin moieties (XX)
Protocol: as §1, §2

T1 sequence (P15692 other isoform, or with tags, fused parts or gaps): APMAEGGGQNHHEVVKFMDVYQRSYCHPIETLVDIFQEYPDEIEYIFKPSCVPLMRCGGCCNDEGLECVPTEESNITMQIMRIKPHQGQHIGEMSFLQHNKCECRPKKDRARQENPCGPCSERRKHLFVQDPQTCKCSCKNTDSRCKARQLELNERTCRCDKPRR

Binder | IC50 [1] [nM] | binding result [2]
B1 | 3.28 | 
CCCGTCTTCCAGACAAGAGTGCAGGG (ssDNA) [biotinylated DNA competitor oligonucleotide] |  | binds

From patent publication US20050096290, “5'-and 3'-capped aptamers and uses therefor” (published 2005)
